Experimental findings from patent CN1649900A are described below.

Where no end group is shown, it is not given here. [ ]: non-standard residue; d: D form. sY = N[C@@H](Cc1ccc(OS(=O)(=O)O)cc1)C(=O)O

Assay [1] concerns the target Y1 scFv (human single-chain Fv antibody fragment Y1). Nature of the assay: competition ELISA, Y1 scFv on glycocalicin.
Assay [2] shares this target. Nature of the assay: competition ELISA on glycocalicin; peptide 25μM. The settings on record: remark: other sources report otherwise. Background: An ELISA detects its analyte on a solid surface through an enzyme-linked reagent.
Assay [3] shares this target. Nature of the assay: competition FACS on washed platelets; peptide 200μM. The following applies: remark: other sources report otherwise.
Assay [4] has the same target. Nature of the assay: competition ELISA on glycocalicin; peptide 0.5μM. The settings on record: remark: other sources report otherwise.
The target is the same in assay [5]. Nature of the assay: competition FACS on washed platelets; peptide 2.5μM. The settings on record: remark: other sources report otherwise.
Assay [6] has the same target. Nature of the assay: competition ELISA on glycocalicin; peptide 200μM. The settings on record: remark: other sources report otherwise.
The target is the same in assay [7]. Nature of the assay: competition ELISA on glycocalicin; peptide 2.5μM. The settings on record: remark: other sources report otherwise.
For assay [8] the target is unchanged. Nature of the assay: competition FACS on washed platelets; peptide 200μM.
Assay [9] shares this target. Nature of the assay: competition ELISA on glycocalicin; first of three values, peptide taken as 200μM.
For assay [10] the target is unchanged. Nature of the assay: competition ELISA on glycocalicin, peptide taken as 25μM.
Assay [11] has the same target. Nature of the assay: competition ELISA on glycocalicin, peptide taken as 2.5μM.
Assay [12] shares this target. Nature of the assay: competition FACS on washed platelets; peptide 2.5μM.
Assay [13] shares this target. Nature of the assay: competition ELISA on glycocalicin; peptide 25μM.
For assay [14] the target is unchanged. Nature of the assay: competition ELISA on glycocalicin; peptide 2.5μM.
Assay [15] shares this target. Nature of the assay: competition ELISA on glycocalicin; peptide 0.5μM.
The target is the same in assay [16]. Nature of the assay: competition ELISA on glycocalicin; peptide 200μM.
In assay [17] the target is glycocalicin purified from human platelets (soluble extracellular fragment of GPIbα) (human) (UniProt P07359). Nature of the assay: ELISA on glycocalicin.
Assay [18] has as its target human platelet glycoprotein Ibα (GPIbα) on platelets or in platelet lysates (human) (UniProt P07359). Nature of the assay: cell-based or functional assay.
Assay [19] shares this target. Nature of the assay: FACS on washed platelets, control without peptide.

With QATE[sY]EYLDYDFLPETE [P-Y*YY, PSGL-1 N-terminal peptide sulfated on the first tyrosine], in assay [1], the peptide concentration at which Y1 binding is effectively inhibited amounted to 100 µM.

Consider GDEGDTDLYDYYPEEDTE [P-1, non-sulfated synthetic peptide of GPIbα residues 268-285], for which the residual binding of Y1 (% of baseline) in assay [2] came to 71%; in assay [4], 88%; in assay [6], 61%; in [7], 94%. In addition, the residual binding of Y1 (% of baseline, Geo mean) in [3] came out at 87%; in [5] it was 106%.

Regarding TDL[sY]D[sY][sY]PEEDTE [P-2-S, sulfated synthetic peptide of GPIbα residues 273-285], the residual binding of Y1 (% of baseline, Geo mean) was found to be 7% in assay [8] and 61% in assay [12]. Further, the residual binding of Y1 (% of baseline) turned out to be 15% in assay [9], 52% in assay [10] and 78% in [11].

In the case of GDEGDTDL[sY]D[sY][sY]PEEDTE [P-1-S, sulfated synthetic peptide of GPIbα residues 268-285], the residual binding of Y1 (% of baseline, Geo mean) in [8] amounted to 5%; in assay [12] it was 41%. For the same molecule, the residual binding of Y1 (% of baseline) in assay [13] was 25%; in assay [14], 62%; in assay [15], 89%; in assay [16], 0%.

B1: CONY1, Y1 scFv monomer in which the myc tag is deleted or replaced by Lys-Ala-Lys (KAK) (scFv)
scFv: EVQLVESGGGVVRPGGSLRLSCAASGFTFDDYGMSWVRQAPGKGLEWVSGINWNGGSTGYADSVKGRFTISRDNAKNSLYLQMNSLRAEDTAVYYCARMRAPVIWGQGTLVTVSRGGGGSGGGGSGGGGSSELTQDPAVSVALGQTVRITCQGDSLRSYYASWYQQKPGQAPVLVIYGKNNRPSGIPDRFSGSSSGNTASLTITGAQAEDEADYYCNSRDSSGNHVVFGGGTKLTVLG
Consider B1, for which the concentration needed to reach 0.8 OD units in [17] is 12.8 微克/毫升.

In assay [1], QATEYEYLD[sY]DFLPETE [P-YYY*, PSGL-1 N-terminal peptide sulfated on the third tyrosine] had a peptide concentration at which Y1 binding is effectively inhibited of 1 µM.

For GDEGDTDL[sY]D[sY][sY]P [P-3-S, sulfated synthetic peptide of GPIbα residues 268-280], the residual binding of Y1 (% of baseline, Geo mean) turned out to be 26% in assay [8] and 82% in [12]. Further, the values for the residual binding of Y1 (% of baseline) in [9], in [10] and in assay [11] were 21%, 67% and 80%, respectively.

B2: Y1 scFv (human single-chain Fv antibody fragment Y1) (scFv)
scFv: EVQLVESGGGVVRPGGSLRLSCAASGFTFDDYGMSWVRQAPGKGLEWVSGINWNGGSTGYADSVKGRFTISRDNAKNSLYLQMNSLRAEDTAVYYCARMRAPVIWGQGTLVTVSRGGGGSGGGGSGGGGSSELTQDPAVSVALGQTVRITCQGDSLRSYYASWYQQKPGQAPVLVIYGKNNRPSGIPDRFSGSSSGNTASLTITGAQAEDEADYYCNSRDSSGNHVVFGGGTKLTVLGAAAEQKLISEEDLNGAA
On to B2, for which, in assay [18], the 凝集作用%; washed platelets, ristocetin; Y1 scFv 12.5微克/毫升 worked out at 67%; the 凝集作用%; washed platelets, ristocetin; Y1 scFv 14微克/毫升 was 92%; the 凝集作用%; washed platelets, ristocetin; Y1 scFv 25微克/毫升 turned out to be 23%; the 抑制百分比%; platelet-rich plasma, ristocetin; Y1 scFv25微克/毫升 came out at 13%. In assay [18], this molecule had a 抑制百分比%; ristocetin-induced agglutination of washed platelets; Y1 scFv 25微克/毫升 of 77%; a 抑制百分比%; ristocetin-induced aggregation in platelet-rich plasma; Y1 scFv50微克/毫升 of 80%; a 抑制百分比%; washed platelets, ristocetin; Y1 scFv 12.5微克/毫升 of 33%; a 抑制百分比%; washed platelets, ristocetin; Y1 scFv 14微克/毫升 of 8%. Further, in assay [18], the 聚集作用%; platelet-rich plasma, ristocetin; Y1 scFv25微克/毫升 was 87% and the 聚集作用%; platelet-rich plasma, ristocetin; Y1 scFv50微克/毫升 turned out to be 20%. The molecule further had a residual binding of Y1 (% of baseline, Geo mean) in [19] of 114%.

Regarding REEGRQHFFLLEGRSSYS [EGR negative control peptide], the residual binding of Y1 (% of baseline, Geo mean) in assay [8] came out at 119%; in [12] it was 96%. Further, the residual binding of Y1 (% of baseline) in [13] was 89%; in [14], 100%; in [15], 121%; in assay [16], 85%.
